Results reported in US10829756B2, “Discovery of enzymes from the alpha-keto acid decarboxylase family” (Regents of the University of California, priority 2015, dated 2020).
“And” between values parts separate entries of the source, which are not always exact repeats. Identical values can stand only once.

Tests used:
[1] = test system: synthetic recursive+1 pathway; assay: In vivo alcohol production of the synthetic recursive+1 pathway (fermentation, GC-FID); assay type: cell-based, E. coli
Experimental: The measured specificity and activity for each enzyme was used to select two candidates for further characterization of their ability to modulate alcohol production in vivo. The two enzymes with the highest activity and specificity (FIG. 4), KIVD_VLV and GEO 175, were tested for their ability to reprogram the synthetic recursive+1 pathway to produce long-chain alcohol products in vivo. The alcohol-producing biochemical pathway was adapted from a previous study used to synthesize alcohols of various lengths.^3,4 Starting from glucose, the aforementioned+1 pathway, involving LeuABCD, recursively elongates 2-ketoacids, starting with 2-ketobutyrate, into longer chained 2-ketoacids. These 2-ketoacids are then converted to aldehydes by ketoacid decarboxylases (native KIVD, KIVD_VLV, and GEO 175) and subsequently to alcohols by an alcohol dehydrogenase. Carbon flux through this alcohol synthesizing biochemical pathway is enhanced by overexpressing thrABC, ilvA, LeuABCD, and ADH6 on inducible plasmids transformed into E. coli.^3 The effects of overexpression were furthermore supported and maintained by knocking out the threonine exporter enzyme RhtA and the primary DNA recombination degradation enzyme RecA. The enzyme AdhE was also knocked out, which helps raise long chain alcohol production by eliminating a competing pathway where acetyl-CoA is directly converted to ethanol.^19
Genes were removed from the ATCC 98082 ΔrhtA strain genome using P1 transduction from the Keio collection as previously.^32 The aldehyde-alcohol dehydrogenase gene (adhE) was knocked out to eliminate ethanol production from acetyl-coA. In all strains, recA was knocked out to prevent recombination between the genome and plasmids, thereby stabilizing the transformants. Primers used to target recA for knockout were designed based on the Keio collection (Genobase, ecoli.aist-nara.ac.jp) and ordered from Integrated DNA Technologies.
For n-alcohol production, strains of ST128 were transformed with pZS_thrO, pZAlac_ilvABSleuA, and pZE_LeuA*BCDK*A6 containing various kivd mutations. Fermentation conditions were adapted from those in previous works,^3,4 with the following changes: 20 mL of medium was used, with 100 μg/mL ampicillin, […] kanamycin, and 100 μg/mL spectinomycin added. Cells were grown to an optical density at 600 nm of ˜0.6, followed by induction with 0.1 mM isopropyl-b-D-thiogalactoside (IPTG). After fermentation, cells were centrifuged for 15 minutes at 4000×g and 4° C. The supernatant was split into two fractions for analysis, 5 mL for short chain alcohols (ethanol, 1-propanol, and 1-butanol), and 15 mL for long chain alcohols (1-pentanol, 1-hexanol, 1-heptanol, and 1-octanol). Long chain alcohols were extracted from the 15 mL fraction by 3 mL n-hexane prior to analysis. GC-FID analysis was performed as previously described.^4

[2] = High-throughput pH-dependent colorimetric assay of KIVD mutant libraries in crude cell extracts; assay type: biochemical; settings: combinatorial KIVD mutants
Experimental: Partially degenerate oligonucleotides were ordered from Integrated DNA Technologies (San Diego, Calif.) and were used to generate libraries of kivd mutants (with N-terminal his tags) by PCR. Library DNA was purified, inserted into the PCR-amplified pQE9 vector by isothermal Gibson assembly,^31 and transformed into XL1-Blue cells. Individual ampicillin-resistant colonies were picked and grown in 96-well blocks at 37° C. overnight. The number of colonies picked was three times the theoretical library size to ensure approximately 95% probability of all possible mutation combinations occurring. Glycerol was added to 25% (w/v) and libraries were stored at −80° C. until enzyme activity and specificity were assayed. KIVD mutant libraries were screened using a pH-monitored enzyme assay (method explained below) to measure the rate of H^+ consumption resulting from the decarboxylation of 2-ketoacids.
KIVD mutant libraries were grown overnight in culture blocks, diluted 1:100 into fresh media (Luria Broth), grown at 37° C. for 3 hours to OD600 ˜0.6, induced with 0.1 mM IPTG (GoldBio, Saint Louis, Mo.), and grown for 2 additional hours at 37° C. Cells from the well blocks were transferred to 96-well assay plates (Costar, Corning, N.Y.) and cell density was measured at 600 nm. […] Absorbance was measured at 615 nm in a spectrophotometer (TEK Powerwave XS, BioTek, Winooski, Vt.). […]

[3] = In vitro steady-state kinetics of purified 2-ketoacid decarboxylases (ADH/NADH-coupled), C5 substrate; assay type: biochemical; settings: relative to GEO 175
Experimental: (§1) For the native KIVD and KIVD_VLV mutant, 2 ml overnight cultures of XL1B cells were transformed with pQE9 containing N-terminal his-tagged KIVD enzymes and grown in Terrific Broth (BP biomedical, Cat#3046-042) with 50 μg/mL of carbenicillin. (Fisher scientific, Cat# BP2648-5) For the GEOs, 2 ml overnight cultures of BLR cells were transformed with pet29b+ plasmid containing N-terminal his-tagged GEOs, and grown in Terrific Broth with 50 μg/mL of kanamycin. (Fisher scientific, Cat# BP906-5) These cultures were diluted 1:1000 in 500 mL of Terrific Broth with 1 mM MgSO4, 1% glucose, and 50ug/mL of corresponding antibiotics, then grown at 37° C. for 24 hours. […] Protein concentrations were determined using a Synergy H1 spectrophotometer (Biotek) by measuring absorbance at 280 nm using their calculated extinction coefficients with ExPASy ProtParam Tool.^33 All other buffers and salts were purchased from Fisher Scientific unless otherwise specified.
(§2) The kcat and KM values of selective KIVD mutants were measured for the substrates: C3, C5, isoC5, and C8. […] Activity was measured at 0.005 mM to 10 mM substrates. […] Absorbance readings were taken every 1-minute at OD340 at 21° C. for 60 minutes using the Synergy H1. Kinetic parameters (kcat and KM) were determined by fitting initial velocity versus substrate concentration data to the Michaelis-Menten equation.

[4] = In vitro steady-state kinetics of purified 2-ketoacid decarboxylases (ADH/NADH-coupled), C8 substrate; assay type: biochemical; settings: relative to GEO 175
Experimental: as §1, §2

[5] = forty hours, microaerobic, defined media

Molecule | drop of overall alcohol production from that obtained with KIVD [1] | heptanol share of alcohol production [1] | hexanol share of alcohol production [1] | major alcohol product [1] | pentanol share of alcohol production [1] | 1-Ethanol production [1, 5] | 1-Heptanol production [1, 5] | 1-Hexanol production [1, 5] | 1-Octanol production [1, 5] | 1-Pentanol production [1, 5] | 1-Propanol production [1, 5] | long chain (≥C5) alcohols produced ([1]; sum of long chain alcohols) | specificity for C8 and activity in colorimetric screening [2] | effect on shorter chain substrates [3] | effect on catalytic efficiency on C8 [4]
KIVD_VLV: KIVD triple mutant G402V/M538L/F542V, SEQ ID NO:3 (protein, Synthetic protein KIVD_VLV) MYTVGDYLLDRLHELGIEEIFGVPGDYNLQFLDQIISRKDMKWVGNANELNASYMADGYARTKKAAAFLTTFGVGELSAVNGLAGSYAENLPVVEIVGSPTSKVQNEGKFVHHTLADGDFKHFMKMHEPVTAARTLLTAENATVEIDRVLSALLKERKPVYINLPVDVAAAKAEKPSLPLKKENSTSNTSDQEILNKIQESLKNAKKPIVITGHEIISFGLEKTVSQFISKTKLPITTLNFGKSSVDEALPSFLGIYNGKLSEPNLKEFVESADFILMLGVKLTDSSTGAFTHHLNENKMISLNIDEGKIFNESIQNFDFESLISSLLDLSEIEYKGKYIDKKQEDFVPSNALLSQDRLWQAVENLTQSNETIVAEQGTSFFGASSIFLKPKSHFIGQPLWVSIGYTFPAALGSQIADKESRHLLFIGDGSLQLTVQELGLAIREKINPICFIINNDGYTVEREIHGPNQSYNDIPMWNYSKLPESFGATEERVVSKIVRTENEFVSVMKEAQADPNRMYWIELILAKEDAPKVLKKLGKLVAEQNKS | ~10 fold | 37% | 47% | Hexanol (C6) | 16% | no ethanol or propanol production is observed | 269 mg/L and 269 ± 23 mg/L | 341 mg/L and 341 ± 63 mg/L | not observed | 118 mg/L and 118 ± 29 mg/L | no ethanol or propanol production is observed | 728 mg/L | highest specificity and activity |  | 
GEO175 L376T_T240S: engineered mutant of GEO 175 containing two amino acid changes (L376T, T240S), SEQ ID NO:19 (protein, Synthetic mutant of GEO175) MRTVRESALDVLRARGMTTVFGNPGSTELPMLKQFPDDFRYVLGLQEAVVVGMADGFALASGTTGLVNLHTGPGTGNAMGAILNARANRTPMVVTAGQQVRAMLTMEALLTNPQSTLLPQPAVKWAYEPPRAADVAPALARAVQVAETPPQGPVFVSLPMDDFDVVLGEDEDRAAQRAAARTVTHAAAPSAEVVRRLAARLSGARSAVLVAGNDVDASGAWDAVVELAERTGLPVWSAPSEGRVAFPKSHPQYRGMLPPAIAPLSRCLEGHDLVLVIGAPVFCYYPYVPGAHLPENTELVHLTRDADEAARAPVGDAVVADLALTVRALLAELPAREAAAPAARTARAESTAEVDGVLTPLAAMTAIAQGAPANTTWVNESPSNLGQFHDATRIDTPGSFLFTAGGGLGFGLAAAVGAQLGAPDRPVVCVIGDGSTHYAVQALWTAAAYKVPVTFVVLSNQRYAILQWFAQVEGAQGAPGLDIPGLDIAAVATGYGVRAHRATGFGELSKLVRESALQQDGPVLIDVPVTTELPTL |  |  |  |  |  |  |  |  |  |  |  |  |  | negligible effect | decrease catalytic efficiency on C8
